B1: Annexin A5, P08758 (parent)
chain: MAQVLRGTVTDFPGFDERADAETLRKAMKGLGTDEESILTLLTSRSNAQRQEISAAFKTLFGRDLLDDLKSELTGKFEKLIVALMKPSRLYDAYELKHALKGAGTNEKVLTEIIASRTPEELRAIKQVYEEEYGSSLEDDVVGDTSGYYQRMLVVLLQANRDPDAGIDEAQVEQDAQALFQAGELKWGTDEEKFITIFGTRSVSHLRKVFDKYMTISGFQIEETIDRETSGNLEQLLLAVVKSIRSIPAYLAETLYYAMKGAGTDDHTLIRVMVSRSEIDLFNIRKEFRKNFATSLYSMIKGDTSGDYKKALLLLCGEDD

Variants of: B1
Settings: Homo sapiens; pH 8; Thermal; DSC; Tris 50 mM; KCl 100 mM; reversible: no; structure 1AVR; whole UniProt chain shown

Row | Variant | Tm [°C] | unfolding enthalpy (calorimetric) [kcal/mol] | unfolding enthalpy (van 't Hoff) [kcal/mol]
1 | MAQVLRGTVTDFPGFDGRADAETLRKAMKGLGTDEESILTLLTSRSNAQRQEISAAFKTLFGRDLLDDLKSELTGKFEKLIVALMKPSRLYDAYELKHALKGAGTNEKVLTEIIASRTPEELRAIKQVYEEEYGSSLEDDVVGDTSGYYQRMLVVLLQANRDPDAGIDEAQVEQDAQALFQAGELKWGTDEEKFITIFGTRSVSHLRKVFDKYMTISGFQIEETIDRETSGNLEQLLLAVVKSIRSIPAYLAETLYYAMKGAGTDDHTLIRVMVSRSEIDLFNIRKEFRKNFATSLYSMIKGDTSGDYKKALLLLCGEDD [E17G] | 52.8 | 164 | 173
